Percent of input recovered data for one molecule are collected here from paper PMC5620376.

Some results are limits rather than exact numbers.

Experiment in all cases: pull-down
One assay addresses GST.
The target in a further assay is T1, GST-Ykt6 (yeast).
T1 sequence (P36015 whole entry, looked up): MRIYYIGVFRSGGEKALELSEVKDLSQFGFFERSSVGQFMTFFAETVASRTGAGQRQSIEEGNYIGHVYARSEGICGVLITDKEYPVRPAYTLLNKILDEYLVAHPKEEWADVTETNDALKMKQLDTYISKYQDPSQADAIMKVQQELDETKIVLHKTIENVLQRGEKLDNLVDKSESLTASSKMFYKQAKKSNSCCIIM

Another assay has as its target T2, GST-Bet1 (yeast).
T2 sequence (P22804 whole entry, looked up): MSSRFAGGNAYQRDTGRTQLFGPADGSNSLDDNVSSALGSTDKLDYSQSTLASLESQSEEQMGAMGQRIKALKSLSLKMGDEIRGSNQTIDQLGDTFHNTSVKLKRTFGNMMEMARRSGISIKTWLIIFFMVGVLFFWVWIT

A further assay has as its target T3, GST-Sft1 (yeast).
T3 sequence (P43682 whole entry, looked up): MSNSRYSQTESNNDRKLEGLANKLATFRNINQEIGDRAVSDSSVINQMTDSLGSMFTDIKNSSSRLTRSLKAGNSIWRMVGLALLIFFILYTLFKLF

The next assay has as its target T4, GST-Gos1 (yeast).
T4 sequence (P38736 whole entry, looked up): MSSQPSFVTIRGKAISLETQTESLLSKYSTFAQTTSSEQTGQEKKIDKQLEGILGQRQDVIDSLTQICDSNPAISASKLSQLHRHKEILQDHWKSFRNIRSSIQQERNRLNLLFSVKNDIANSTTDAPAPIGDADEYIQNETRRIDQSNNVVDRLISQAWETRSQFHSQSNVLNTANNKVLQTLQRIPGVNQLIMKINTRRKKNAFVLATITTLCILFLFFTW

The next assay concerns the target GST-Sed5 (yeast).

GST-Sed5 (yeast), sequence (Q01590 whole entry): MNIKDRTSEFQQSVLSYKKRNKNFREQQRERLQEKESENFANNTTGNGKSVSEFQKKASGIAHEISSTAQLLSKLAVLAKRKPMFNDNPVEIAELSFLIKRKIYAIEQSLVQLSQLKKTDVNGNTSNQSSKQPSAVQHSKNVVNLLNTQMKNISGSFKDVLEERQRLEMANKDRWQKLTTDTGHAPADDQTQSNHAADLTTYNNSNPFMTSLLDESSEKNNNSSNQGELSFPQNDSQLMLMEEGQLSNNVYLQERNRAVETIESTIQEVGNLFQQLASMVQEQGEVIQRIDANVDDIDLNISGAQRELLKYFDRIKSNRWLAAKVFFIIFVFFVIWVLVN

B1: Coy1ΔTM-HA (domain or fragment)
chain: MDTSVYSHALDIWAKADLTNLQRELDADVIEIKDKETLSLNSRKSLATETKKFKKLEPEEKLNNVNKIIKQYQREIDNLTQRSKFSEKVLFDVYEKLSEAPDPQPLLQSSLEKLGKIDDSKELKEKISYLEDKLAKYADYETLKSRLLDLEQSSAKTLAKRLTAKTQEINSTWEEKGRNWKEREADLLKQLTNVQEQNKALEAKISKNIDIEGNGNEDGDQENNQKEVSTRIAEYNLVTQELETTQARIYQLEKRNEELSGALAKATSEAEKETELHAKELKLNQLESENALLSASYEQERKSTSHAINELKEQLNSVVAESESYKSELETVRRKLNNYSDYNKIKEELSALKKIEFGVNEDDSDNDIRSEDKNDNTFESSLLSANKKLQATLAEYRSKSTAQEEERNELKKSVDQLKQQIATLKEANEKLETDLEKVENVSPHFNETASMMSGVTRQMNNRTSHKMSPTSSIIGIPEDGELSGNQSTILPIVTKQRDRFRSRNMDLEKQLRQGNSEKGKLKLEISKLKGDNTKLYERIRYLQSYNNNNAPVNQSTERIDVESQYSRVYDESLHPMANFRQNELNHYKNKKLSALEKLFSSFAKVILQNKMTR
Regarding B1, the percent of input recovered in the assay with GST was less than 1%; in the assay with GST-Ykt6 (yeast) it was less than 1%; with GST-Bet1 (yeast) it was less than 1%; with GST-Sft1 (yeast), 15%; with GST-Gos1 (yeast), 15%; with GST-Sed5 (yeast) it was 15%.
